This passage reports Km of FITC-casein degradation (translocation into ClpP), initial rates against FITC-casein concentration and Kd results from patent publication US20150240222A1.

In assay [1] the target is FITC-casein. In words: cell-based or functional assay.
Assay [2] addresses FITC-casein. Briefly: fluorescence polarization, 6 nM FITC-casein with 0-5 uM Hsp104, 2 mM ATPgS, 25 C. A general note: In fluorescence polarisation assays a small probe gives low polarisation when free and higher when bound to something large.

For the substance HAPWT (from UniProt P31539 1-908), the Km of FITC-casein degradation (translocation into ClpP), initial rates against FITC-casein concentration in assay [1] worked out at 2.88 µM.

What is called Kd is the free concentration of one partner at which half of the binding sites on the other are occupied at equilibrium, for simple one-to-one binding. A high value points to lower affinity. Take Hsp104A503V (from UniProt P31539 1-908): in assay [2], the Kd came to 80 nM.

Substance Hsp104WT (from UniProt P31539 1-908) returned a Kd in assay [2] of 65 nM.

On to HAPA503V (from UniProt P31539 1-908), for which the Km of FITC-casein degradation (translocation into ClpP), initial rates against FITC-casein concentration in assay [1] was determined as 1.29 µM.
